The results in this text go back to patent US20240091318A1, “COMBINATION THERAPY COMPRISING LONG ACTING GLP-1/GLUCAGON AND NPY2 RECEPTOR AGONISTS” (Boehringer Ingelheim International GmbH, priority 2022, published 2024).

The nature of experiment [1]: Effect on acute food intake (AFI) in normal NMRI mice. It counts as in vivo. The note with it: male NMRI mice, 10 nmol/kg s.c. once, % vs. vehicle group. The protocol:
Effect on Acute Food Intake in Normal NMRI Mice
Male NMRI mice were obtained from Charles River (Charles River, Research Models & Services Germany GmbH) or from JanVier (JanVier Labs, France) at 5 weeks of age. […] Room temperature was controlled to 21° C.±1° C., with 60%±20% humidity.
Animals were transferred 5-7 days before the start of the study to a real-time food intake monitoring system, HM-2 system (MBRose, Denmark), to allow acclimatization to experimental conditions. As the animals were uniquely identified with microchips, each individual animal was identified by its microchip upon entry and exit from the food channel. Randomization of the mice for each study group (n=7-8) was based on body weight measured the day before the start of the study. A vehicle-treated (50 mM phosphate buffer pH7 with 5% Mannitol) group was included in each experiment. Six hours before the start of the night phase animals were fasted. One hour before the dark phase animals were dosed once subcutaneously (10 nmol/kg) with test peptide. […] The food intake of the treated groups was normalized (in %) to the average food intake of the group receiving vehicle (Table 1). Statistical significance was evaluated using One-way analysis of variance with Turkey's multiple comparison test. P<0.05 was considered statistically significant.

Experiment [2] in a line: Effect on body weight loss and food intake in wildtype Diet Induced Obesity (DIO) mice. It counts as in vivo. As to conditions: 30 nmol/kg s.c. once daily, 5 day. From the text: Effect on Body Weight Loss in Wildtype Diet Induced Obesity Mice
Male C57BL6/J pre-fed on 60% high fat diet were obtained from The Jackson Laboratories at >16 weeks of age. Upon arrival of the Diet Induced Obesity (DIO) mice, the mice where single housed to obtain accurate and individual food intake measurements of each animal and assigned an animal number. […] During the entire study animals had ad libitum access to food and water.
Before start of treatment a stratified randomization was performed based on the body weight measured in week −1 prior study start. At study start the age of mice was around 20 weeks. Bodyweight and food intake were measured daily before compound administration. Animals were dosed around one hour before start of the night phase by subcutaneous injection of 30 nmol/kg once daily for 5 till 28 days depending on the experiment. Control animals were dosed by subcutaneous injection daily with vehicle.

For experiment [3], the target named is T1, human NPY2 receptor (human, UniProt P49146).
T1 sequence: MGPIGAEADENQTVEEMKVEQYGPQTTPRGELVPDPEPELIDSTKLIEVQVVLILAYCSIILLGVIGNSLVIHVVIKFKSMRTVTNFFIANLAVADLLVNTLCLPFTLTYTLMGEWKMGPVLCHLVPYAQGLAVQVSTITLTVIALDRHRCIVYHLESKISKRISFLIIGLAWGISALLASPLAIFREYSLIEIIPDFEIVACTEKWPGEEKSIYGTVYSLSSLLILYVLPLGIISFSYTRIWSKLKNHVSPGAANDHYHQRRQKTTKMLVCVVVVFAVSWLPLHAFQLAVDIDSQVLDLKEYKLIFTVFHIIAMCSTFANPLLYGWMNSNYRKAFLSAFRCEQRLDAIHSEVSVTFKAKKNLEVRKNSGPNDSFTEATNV
Nature of the experiment: radioligand binding competition (125I-PYY(1-36)) on human NPY2R membranes, filtration. The protocol: The filtration RLB assay was carried out in 96-well plates in a final volume of 100 μl per well. Freeze-dried test peptides were dissolved in 100% dimethyl sulfoxide (DMSO) to stock solutions of 1 mM and serial dilutions were performed in assay buffer (50 mM HEPES, 5 mM MgCl₂, 1 mM CaCl₂, pH 7.4) containing 0.2% ovalbumin. […] Subsequently, 10 μl of human ¹²⁵I-PYY(1-36) (Perkin Elmer) in assay buffer containing 0.2% ovalbumin was added to wells to give a final concentration of 0.02 nM. Next, 80 μL membranes (HTS066M, ChemiSCREEN™ Human Neuropeptide Y2 Receptor Membrane Preparation, CHEMICON) were added to each well to give a final protein concentration of 0.5 μg/well. The plates were sealed and incubated at room temperature for 2 hours in a plate shaker set at 400 rpm. The incubation was stopped by vacuum filtration onto 0.5% poly-ethylene amine (PEI) presoaked GF/C filters using a 96-well FilterMate™ harvester (Perkin Elmer) followed by four washes with 300 μl/well ice-cold wash buffer (50 mM HEPES, 500 mM NaCl, pH7.4). Filter plates were then dried for 60 min at room temperature and the bottom of the plates was sealed with backing tape UniFilter-96. Finally, 50 μl/well scintillation counter cocktail (Microscint20, Packard) was added, and the radioactivity was counted in the Packard TopCount NXT scintillation counter. IC₅₀ values (the half maximal inhibitory concentration of the agonist) were calculated by nonlinear regression analysis of sigmoidal dose-response curves.

Numbered stars: 1 amine (or outer) side, 2 acyl side, 3 side chain; on linkers, the order of the positions; unused ones are H or OH. Side chains are listed from the residue outwards. * marks the point of attachment. C18 diacid = O=C(O)CCCCCCCCCCCCCCCCC(=O)*; γGlu = O=C(O)[C@H](CCC(=O)[*:2])N[*:1]; Isovaleryl = CC(C)CC(=O)*; AEEA = NCCOCCOCC(=O)O; Ahx = NCCCCCC(=O)O

In the case of `CC[C@H](C)[C@H](NC(=O)[C@H](CCC(=O)O)NC(=O)[C@H](CCC(=O)O)NC(=O)[C@@H]1CCCN1C(=O)[C@@H](NC(=O)[C@H](C)NC(=O)[C@H](CC(=O)O)NC(=O)[C@H](CCC(=O)O)NC(=O)[C@H](CCC(=O)O)NC(=O)[C@@H]1CCCN1C(=O)[C@H](CCCCNC(=O)COCCOCCNC(=O)COCCOCCNC(=O)CC[C@H](NC(=O)CCCCCCCCCCCCCCCCC(=O)O)C(=O)O)NC(=O)[C@H](CCC(=O)O)NC(=O)[C@@H]1CCCN1C(=O)[C@H](C)NC(=O)CC(C)C)[C@@H](C)O)C(=O)N[C@@H](CCC(N)=O)C(=O)N[C@@H](CCCNC(=N)N)C(=O)N[C@@H](Cc1ccc(O)cc1)C(=O)N[C@@H](Cc1ccc(O)cc1)C(=O)N[C@H](C(=O)N[C@@H](CO)C(=O)N[C@@H](CC(C)C)C(=O)N[C@@H](CCCNC(=N)N)C(=O)N[C@@H](Cc1c[nH]cn1)C(=O)N[C@@H](Cc1ccc(O)cc1)C(=O)N[C@@H](Cc1ccc(O)cc1)C(=O)N[C@@H](CC(N)=O)C(=O)N[C@@H](Cc1c[nH]c2ccccc12)C(=O)N[C@@H](CC(C)C)C(=O)N[C@H](C(=O)N[C@@H](CCCNC(=N)N)C(=O)N[C@@H](CCC(N)=O)C(=O)N[C@@H](CCCNC(=N)N)C(=O)N[C@@H](Cc1ccc(O)cc1)C(N)=O)[C@@H](C)O)C(C)C` [Compound G, N{alpha-4}-(3-methylbutanoyl)-N{epsilon-7}-[2-(2-{2-[2-(2-{2-[(4S)-4-carboxy-4-(17-carboxyheptadecanamido)butanamido]ethoxy}ethoxy)acetamido]ethoxy}ethoxy)acetamido]-[4A,7K,9E,13T,17I,18Q,22V,28Y,30W,31L]hPYY(4-36)], the “AFI 10 nmol/kg 24 h (food intake normalized to vehicle group)” value in experiment [1] is recorded as 44%. Further, in experiment [2], the “BW 30 nmol/kg 5 day (body weight loss vs. vehicle group)” value is on record as 10.6%.

B1: Compound J (peptide)
peptide: Isovaleryl-APEK([AEEA-AEEA-γGlu-C18 diacid])PEADASPEEIQRYYVSLRHYYNWLTRQRY-NH2
What is called Ki is the dissociation constant of the complex between target and ligand, obtained from inhibition or displacement. Regarding B1, affinity in experiment [3] was put at a Ki of 0.24 nM.

B2: Reference 2 (peptide)
peptide: APEKPGEDASPEELQRYYVSLRHYYHWLTRQRY
modifications: not fully specified; N-terminal iVal (3-methylbutanoyl); the Lys (4th residue) carries C18DA-gGlu-OEG-OEG; C-terminal amide (-NH2)
Take B2: the Ki in experiment [3] is 0.4 nM.

B3: Compound E (peptide)
peptide: Isovaleryl-APAK([AEEA-AEEA-γGlu-C18 diacid])PEEDASPEEIQRYYVSLRHYYNWLTRQRY-NH2
B3 returned a Ki in experiment [3] of 0.55 nM.

B4: Compound A (peptide)
peptide: Isovaleryl-APAK([AEEA-AEEA-γGlu-C18 diacid])PEEDATPEELQRYYVSLRHYYNWLTRQRY-NH2
On to B4, for which the inhibitory constant (Ki) in experiment [3] stood at 0.66 nM.

B5: Compound K (peptide)
peptide: Isovaleryl-APEK([Ahx-γGlu-C18 diacid])PEADATPEEIQRYYVSLRHYYNWLTRQRY-NH2
B5: the affinity in experiment [3] corresponds to a Ki of 1.04 nM.

B6: Reference 1 (peptide)
peptide: Isovaleryl-APEKPEEDASPEEIQQYYVSLRHYYNWLTRQRY-NH2
modifications: not fully specified (residue 4); printed as iVal-APEK(C18DA-gGlu-OEG-OEG)PEEDASPEEIQQYYVSLRHYYNWLTRQRY-NH2
The molecule B6 had a Ki in experiment [3] of 0.74 nM.

B7: Compound C (peptide)
peptide: Isovaleryl-APAK([AEEA-AEEA-γGlu-C18 diacid])PEEEASPEELQRYYVSLRHYYNWLTRQRY-NH2
SMILES: CC(C)CC(=O)N[C@@H](C)C(=O)N1CCC[C@H]1C(=O)N[C@@H](C)C(=O)N[C@@H](CCCCNC(=O)COCCOCCNC(=O)COCCOCCNC(=O)CC[C@H](NC(=O)CCCCCCCCCCCCCCCCC(=O)O)C(=O)O)C(=O)N1CCC[C@H]1C(=O)N[C@@H](CCC(=O)O)C(=O)N[C@@H](CCC(=O)O)C(=O)N[C@@H](CCC(=O)O)C(=O)N[C@@H](C)C(=O)N[C@@H](CO)C(=O)N1CCC[C@H]1C(=O)N[C@@H](CCC(=O)O)C(=O)N[C@@H](CCC(=O)O)C(=O)N[C@@H](CC(C)C)C(=O)N[C@@H](CCC(N)=O)C(=O)N[C@@H](CCCNC(=N)N)C(=O)N[C@@H](Cc1ccc(O)cc1)C(=O)N[C@@H](Cc1ccc(O)cc1)C(=O)N[C@H](C(=O)N[C@@H](CO)C(=O)N[C@@H](CC(C)C)C(=O)N[C@@H](CCCNC(=N)N)C(=O)N[C@@H](Cc1c[nH]cn1)C(=O)N[C@@H](Cc1ccc(O)cc1)C(=O)N[C@@H](Cc1ccc(O)cc1)C(=O)N[C@@H](CC(N)=O)C(=O)N[C@@H](Cc1c[nH]c2ccccc12)C(=O)N[C@@H](CC(C)C)C(=O)N[C@H](C(=O)N[C@@H](CCCNC(=N)N)C(=O)N[C@@H](CCC(N)=O)C(=O)N[C@@H](CCCNC(=N)N)C(=O)N[C@@H](Cc1ccc(O)cc1)C(N)=O)[C@@H](C)O)C(C)C
B7 returned a Ki in experiment [3] of 1.95 nM. This Ki lies about 2.6-fold higher than the previous one.

B8: Compound F (peptide)
peptide: Isovaleryl-APEK([AEEA-AEEA-γGlu-C18 diacid])PEADATPEELQRYYVSLRHYYNWLTRQRY-NH2
SMILES: CC(C)CC(=O)N[C@@H](C)C(=O)N1CCC[C@H]1C(=O)N[C@@H](CCC(=O)O)C(=O)N[C@@H](CCCCNC(=O)COCCOCCNC(=O)COCCOCCNC(=O)CC[C@H](NC(=O)CCCCCCCCCCCCCCCCC(=O)O)C(=O)O)C(=O)N1CCC[C@H]1C(=O)N[C@@H](CCC(=O)O)C(=O)N[C@@H](C)C(=O)N[C@@H](CC(=O)O)C(=O)N[C@@H](C)C(=O)N[C@H](C(=O)N1CCC[C@H]1C(=O)N[C@@H](CCC(=O)O)C(=O)N[C@@H](CCC(=O)O)C(=O)N[C@@H](CC(C)C)C(=O)N[C@@H](CCC(N)=O)C(=O)N[C@@H](CCCNC(=N)N)C(=O)N[C@@H](Cc1ccc(O)cc1)C(=O)N[C@@H](Cc1ccc(O)cc1)C(=O)N[C@H](C(=O)N[C@@H](CO)C(=O)N[C@@H](CC(C)C)C(=O)N[C@@H](CCCNC(=N)N)C(=O)N[C@@H](Cc1c[nH]cn1)C(=O)N[C@@H](Cc1ccc(O)cc1)C(=O)N[C@@H](Cc1ccc(O)cc1)C(=O)N[C@@H](CC(N)=O)C(=O)N[C@@H](Cc1c[nH]c2ccccc12)C(=O)N[C@@H](CC(C)C)C(=O)N[C@H](C(=O)N[C@@H](CCCNC(=N)N)C(=O)N[C@@H](CCC(N)=O)C(=O)N[C@@H](CCCNC(=N)N)C(=O)N[C@@H](Cc1ccc(O)cc1)C(N)=O)[C@@H](C)O)C(C)C)[C@@H](C)O
Regarding B8, in experiment [3], the affinity corresponds to a Ki of 0.31 nM.

B9: Reference 3 (peptide)
peptide: Isovaleryl-RPEKPEEDASPEELQRYYVSLRHYYNWLTRQRY-NH2
modifications: not fully specified (residue 4); printed as iVal-RPEK(C18DA-gGlu-OEG-OEG)PEEDASPEELQRYYVSLRHYYNWLTRQRY-NH2
Molecule B9 yielded a Ki in experiment [3] of 0.46 nM.

B10: Compound H (peptide)
peptide: Isovaleryl-APEK([AEEA-AEEA-γGlu-C18 diacid])PEEDATPEELQKYYVSLRHYYNWLTRQRY-NH2
Molecule B10 yielded a Ki in experiment [3] of 1.96 nM.
